Source: paper PMC3972249
Changes are numbered by the printed parent chain. Names and notes keep the numbering of the source.

B1: NEDD8-activating enzyme (NAE), catalytic subunit UBA3 I310N (Homo sapiens; I310N) (protein)
chain: ADGEEPEKKRRRIEELLAEKMAVDGGCGDTGDWEGRWNHVKKFLERSGPFTHPDFEPSTESLQFLLDTCKVLVIGAGGLGCELLKNLALSGFRQIHVIDMDTIDVSNLNRQFLFRPKDIGRPKAEVAAEFLNDRVPNCNVVPHFNKIQDFNDTFYRQFHIIVCGLDSIIARRWINGMLISLLNYEDGVLDPSSIVPLIDGGTEGFKGNARVILPGMTACIECTLELYPPQVNFPMCTIASMPRLPEHCIEYVRMLQWPKEQPFGEGVPLDGDDPEHIQWIFQKSLERASQYNIRGVTYRLTQGVVKRINPAVASTNAVIAAVCATEVFKIATSAYIPLNNYLVFNDVDGLYTYTFEAERKENCPACSQLPQNIQFSPSAKLQEVLDYLTNSASLQMKSPAITATLEGKNRTLYLQSVTSIEERTRPNLSKTLKELGLVDGQELAVADVTTPQTVLFKLHFTS
notes: recombinant human UBA3 (isoform 1) in NAE complex; with NAEα (APPBP1); NEDD8
B2: NEDD8-activating enzyme (NAE), catalytic subunit UBA3 (NAEβ) (Homo sapiens) (protein)
chain: B1 chain with N309I
notes: as for B1

Substrate: Nc1ncnc2c1ncn2[C@@H]1O[C@H](COP(=O)(O)OP(=O)(O)OP(=O)(O)O)[C@@H](O)[C@H]1O
Assay: KM from ATP titration in ATP:PPi exchange assay
Assay type: biochemical, Homo sapiens

Protein | Km [µM]
B1 | 20
B2 | 80
